Measured values reported in patent US20140087995A1 (published 2014).
Numbered stars: 1 amine (or outer) side, 2 acyl side, 3 side chain; on linkers, the order of the positions; unused ones are H or OH. Bridge positions count the residues as written; N and C are the ends. Side chains are listed from the residue outwards. Ends that are not written are not given here. * marks the point of attachment. C20 diacid = O=C(O)CCCCCCCCCCCCCCCCCCC(=O)*; γGlu = O=C(O)[C@H](CCC(=O)[*:2])N[*:1]; AEEA = NCCOCCOCC(=O)O

T1: rat calcitonin receptor (rat, UniProt P32214 25-516)
T1 construct: whole, on cells; Used as membranes prepared from the transfected cells; also called rCTR; rCT
T1 sequence (looked up): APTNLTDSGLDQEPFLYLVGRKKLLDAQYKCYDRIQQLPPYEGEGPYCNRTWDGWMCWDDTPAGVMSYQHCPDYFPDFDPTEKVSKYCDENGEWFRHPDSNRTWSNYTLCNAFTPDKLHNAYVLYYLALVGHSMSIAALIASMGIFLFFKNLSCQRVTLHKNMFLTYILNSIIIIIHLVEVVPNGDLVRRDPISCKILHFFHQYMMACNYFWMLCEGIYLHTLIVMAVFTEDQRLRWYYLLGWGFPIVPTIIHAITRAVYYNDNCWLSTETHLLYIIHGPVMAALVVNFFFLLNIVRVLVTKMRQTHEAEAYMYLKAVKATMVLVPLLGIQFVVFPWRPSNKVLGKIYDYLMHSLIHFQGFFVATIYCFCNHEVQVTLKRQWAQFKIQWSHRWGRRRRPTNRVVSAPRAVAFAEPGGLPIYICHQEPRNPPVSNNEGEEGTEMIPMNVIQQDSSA

T2: human calcitonin receptor (human, UniProt P30988 25-474)
T2 construct: whole, on cells; Used as membranes prepared from the transfected cells; also called hCTR; hCT
T2 sequence (looked up): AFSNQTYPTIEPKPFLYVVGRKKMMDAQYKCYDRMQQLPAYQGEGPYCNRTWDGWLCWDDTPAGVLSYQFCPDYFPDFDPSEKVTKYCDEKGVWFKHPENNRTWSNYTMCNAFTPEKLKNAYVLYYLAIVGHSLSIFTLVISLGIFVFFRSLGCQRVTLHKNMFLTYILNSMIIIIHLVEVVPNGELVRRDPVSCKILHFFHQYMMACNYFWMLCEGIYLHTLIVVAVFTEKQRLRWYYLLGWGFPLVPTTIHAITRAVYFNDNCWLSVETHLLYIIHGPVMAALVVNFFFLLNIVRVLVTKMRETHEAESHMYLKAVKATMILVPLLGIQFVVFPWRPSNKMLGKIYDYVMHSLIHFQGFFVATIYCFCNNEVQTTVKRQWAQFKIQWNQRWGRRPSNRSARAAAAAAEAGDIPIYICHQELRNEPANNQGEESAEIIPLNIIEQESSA


Assays:
rat calcitonin receptor [1] = molecular target: T1, rat calcitonin receptor; assay: ratio of binding IC50 at rat calcitonin receptor to IC50 at rat amylin receptor (reference)
[2] = molecular target: T2, human calcitonin receptor; assay: ratio of binding IC50 at human calcitonin receptor to IC50 at human amylin receptor (reference)
Outline: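 Membranes (35 ng/μL final) + SPA beads, 50 mM Hepes pH 7.4 buffer with 1 mM CaCl2, 5 mM MgCl₂, 0.1% OA, 0.02% Tween20; 120 min, 25° C, shaking; centrifuged, counted; IC₅₀ by one-site binding competition.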

rat calcitonin receptor [3] = molecular target: T1, rat calcitonin receptor; assay: SPA competition with 125I-calcitonin, membranes with rat calcitonin receptor (Assay VIII)

Row | Binder | Ratio rCT/rAmylin binding (rat calcitonin receptor [1]) | Ratio hCT/hAmylin binding [2] | IC50 (rat calcitonin receptor [3]) [nM]
1 | K([γGlu-γGlu-C20 diacid])CNTATCATQRLAEFLRHSSPNFGAIPSSTNVGRNTY-NH2 (disulfide 2-7; N-terminus assumed; SMILES CC[C@H](C)[C@H](NC(=O)[C@H](C)NC(=O)CNC(=O)[C@H](Cc1ccccc1)NC(=O)[C@H](CC(N)=O)NC(=O)[C@@H]1CCCN1C(=O)[C@H](CO)NC(=O)[C@H](CO)NC(=O)[C@H](Cc1c[nH]cn1)NC(=O)[C@H](CCCNC(=N)N)NC(=O)[C@H](CC(C)C)NC(=O)[C@H](Cc1ccccc1)NC(=O)[C@H](CCC(=O)O)NC(=O)[C@H](C)NC(=O)[C@H](CC(C)C)NC(=O)[C@H](CCCNC(=N)N)NC(=O)[C@H](CCC(N)=O)NC(=O)[C@@H](NC(=O)[C@H](C)NC(=O)[C@@H]1CSSC[C@H](NC(=O)[C@@H](N)CCCCNC(=O)CC[C@H](NC(=O)CC[C@H](NC(=O)CCCCCCCCCCCCCCCCCCC(=O)O)C(=O)O)C(=O)O)C(=O)N[C@@H](CC(N)=O)C(=O)N[C@@H]([C@@H](C)O)C(=O)N[C@@H](C)C(=O)N[C@@H]([C@@H](C)O)C(=O)N1)[C@@H](C)O)C(=O)N1CCC[C@H]1C(=O)N[C@@H](CO)C(=O)N[C@@H](CO)C(=O)N[C@H](C(=O)N[C@@H](CC(N)=O)C(=O)N[C@H](C(=O)NCC(=O)N[C@@H](CCCNC(=N)N)C(=O)N[C@@H](CC(N)=O)C(=O)N[C@H](C(=O)N[C@@H](Cc1ccc(O)cc1)C(N)=O)[C@@H](C)O)C(C)C)[C@@H](C)O, Analogue of human amylin; disulfide and C-terminal amide as told for h-amylin; also called compound 88) | 84.9 | 46.5 | 196
2 | K([γGlu-γGlu-C20 diacid])CNTATCATQRLAEFLRHSSPNFGAIPSSTNVGSRTY-NH2 (disulfide 2-7; N-terminus assumed; SMILES CC[C@H](C)[C@H](NC(=O)[C@H](C)NC(=O)CNC(=O)[C@H](Cc1ccccc1)NC(=O)[C@H](CC(N)=O)NC(=O)[C@@H]1CCCN1C(=O)[C@H](CO)NC(=O)[C@H](CO)NC(=O)[C@H](Cc1c[nH]cn1)NC(=O)[C@H](CCCNC(=N)N)NC(=O)[C@H](CC(C)C)NC(=O)[C@H](Cc1ccccc1)NC(=O)[C@H](CCC(=O)O)NC(=O)[C@H](C)NC(=O)[C@H](CC(C)C)NC(=O)[C@H](CCCNC(=N)N)NC(=O)[C@H](CCC(N)=O)NC(=O)[C@@H](NC(=O)[C@H](C)NC(=O)[C@@H]1CSSC[C@H](NC(=O)[C@@H](N)CCCCNC(=O)CC[C@H](NC(=O)CC[C@H](NC(=O)CCCCCCCCCCCCCCCCCCC(=O)O)C(=O)O)C(=O)O)C(=O)N[C@@H](CC(N)=O)C(=O)N[C@@H]([C@@H](C)O)C(=O)N[C@@H](C)C(=O)N[C@@H]([C@@H](C)O)C(=O)N1)[C@@H](C)O)C(=O)N1CCC[C@H]1C(=O)N[C@@H](CO)C(=O)N[C@@H](CO)C(=O)N[C@H](C(=O)N[C@@H](CC(N)=O)C(=O)N[C@H](C(=O)NCC(=O)N[C@@H](CO)C(=O)N[C@@H](CCCNC(=N)N)C(=O)N[C@H](C(=O)N[C@@H](Cc1ccc(O)cc1)C(N)=O)[C@@H](C)O)C(C)C)[C@@H](C)O, Analogue of human amylin; disulfide and C-terminal amide as told for h-amylin; also called compound 89) | 48.8 | 28 | 115

Stronger by IC50 (rat calcitonin receptor [3]), values ahead:

Row | Ratio rCT/rAmylin binding (rat calcitonin receptor [1]) | Ratio hCT/hAmylin binding [2] | IC50 (rat calcitonin receptor [3]) [nM] | Binder
3 | 96.5 | 60.8 | 34.2 | K([γGlu-C20 diacid])CNTATCATQRLAHFLRHSSPNFGAIPSSTNVGSNTY-NH2 (disulfide 2-7; N-terminus assumed; SMILES CC[C@H](C)[C@H](NC(=O)[C@H](C)NC(=O)CNC(=O)[C@H](Cc1ccccc1)NC(=O)[C@H](CC(N)=O)NC(=O)[C@@H]1CCCN1C(=O)[C@H](CO)NC(=O)[C@H](CO)NC(=O)[C@H](Cc1c[nH]cn1)NC(=O)[C@H](CCCNC(=N)N)NC(=O)[C@H](CC(C)C)NC(=O)[C@H](Cc1ccccc1)NC(=O)[C@H](Cc1c[nH]cn1)NC(=O)[C@H](C)NC(=O)[C@H](CC(C)C)NC(=O)[C@H](CCCNC(=N)N)NC(=O)[C@H](CCC(N)=O)NC(=O)[C@@H](NC(=O)[C@H](C)NC(=O)[C@@H]1CSSC[C@H](NC(=O)[C@@H](N)CCCCNC(=O)CC[C@H](NC(=O)CCCCCCCCCCCCCCCCCCC(=O)O)C(=O)O)C(=O)N[C@@H](CC(N)=O)C(=O)N[C@@H]([C@@H](C)O)C(=O)N[C@@H](C)C(=O)N[C@@H]([C@@H](C)O)C(=O)N1)[C@@H](C)O)C(=O)N1CCC[C@H]1C(=O)N[C@@H](CO)C(=O)N[C@@H](CO)C(=O)N[C@H](C(=O)N[C@@H](CC(N)=O)C(=O)N[C@H](C(=O)NCC(=O)N[C@@H](CO)C(=O)N[C@@H](CC(N)=O)C(=O)N[C@H](C(=O)N[C@@H](Cc1ccc(O)cc1)C(N)=O)[C@@H](C)O)C(C)C)[C@@H](C)O, Analogue of human amylin; disulfide and C-terminal amide as told for h-amylin; also called compound 70) [N^ε1-[(4S)-4-carboxy-4-(19-carboxynonadecanoylamino)butanoyl]-[His14,Arg17,Pro21,Pro27]-h-amylin]
4 | 74.1 | 42.2 | 18.2 | K([AEEA-C20 diacid])CNTATCATQRLAHFLRHSSPNFGAIPSSTNVGSNTY-NH2 (disulfide 2-7; N-terminus assumed; SMILES CC[C@H](C)[C@H](NC(=O)[C@H](C)NC(=O)CNC(=O)[C@H](Cc1ccccc1)NC(=O)[C@H](CC(N)=O)NC(=O)[C@@H]1CCCN1C(=O)[C@H](CO)NC(=O)[C@H](CO)NC(=O)[C@H](Cc1c[nH]cn1)NC(=O)[C@H](CCCNC(=N)N)NC(=O)[C@H](CC(C)C)NC(=O)[C@H](Cc1ccccc1)NC(=O)[C@H](Cc1c[nH]cn1)NC(=O)[C@H](C)NC(=O)[C@H](CC(C)C)NC(=O)[C@H](CCCNC(=N)N)NC(=O)[C@H](CCC(N)=O)NC(=O)[C@@H](NC(=O)[C@H](C)NC(=O)[C@@H]1CSSC[C@H](NC(=O)[C@@H](N)CCCCNC(=O)COCCOCCNC(=O)CCCCCCCCCCCCCCCCCCC(=O)O)C(=O)N[C@@H](CC(N)=O)C(=O)N[C@@H]([C@@H](C)O)C(=O)N[C@@H](C)C(=O)N[C@@H]([C@@H](C)O)C(=O)N1)[C@@H](C)O)C(=O)N1CCC[C@H]1C(=O)N[C@@H](CO)C(=O)N[C@@H](CO)C(=O)N[C@H](C(=O)N[C@@H](CC(N)=O)C(=O)N[C@H](C(=O)NCC(=O)N[C@@H](CO)C(=O)N[C@@H](CC(N)=O)C(=O)N[C@H](C(=O)N[C@@H](Cc1ccc(O)cc1)C(N)=O)[C@@H](C)O)C(C)C)[C@@H](C)O, Analogue of human amylin; disulfide and C-terminal amide as told for h-amylin; also called compound 90) [N^ε1-[2-[2-[2-(19-carboxynonadecanoylamino)ethoxy]ethoxy]acetyl]-[His14,Arg17,Pro21,Pro27]-h-amylin]
5 | 45.6 | 35.6 | 94.5 | K([γGlu-γGlu-C20 diacid])CNTATCATQRLAEFLRHSSPNFGAIPSSTNVGHNTY-NH2 (disulfide 2-7; N-terminus assumed; SMILES CC[C@H](C)[C@H](NC(=O)[C@H](C)NC(=O)CNC(=O)[C@H](Cc1ccccc1)NC(=O)[C@H](CC(N)=O)NC(=O)[C@@H]1CCCN1C(=O)[C@H](CO)NC(=O)[C@H](CO)NC(=O)[C@H](Cc1c[nH]cn1)NC(=O)[C@H](CCCNC(=N)N)NC(=O)[C@H](CC(C)C)NC(=O)[C@H](Cc1ccccc1)NC(=O)[C@H](CCC(=O)O)NC(=O)[C@H](C)NC(=O)[C@H](CC(C)C)NC(=O)[C@H](CCCNC(=N)N)NC(=O)[C@H](CCC(N)=O)NC(=O)[C@@H](NC(=O)[C@H](C)NC(=O)[C@@H]1CSSC[C@H](NC(=O)[C@@H](N)CCCCNC(=O)CC[C@H](NC(=O)CC[C@H](NC(=O)CCCCCCCCCCCCCCCCCCC(=O)O)C(=O)O)C(=O)O)C(=O)N[C@@H](CC(N)=O)C(=O)N[C@@H]([C@@H](C)O)C(=O)N[C@@H](C)C(=O)N[C@@H]([C@@H](C)O)C(=O)N1)[C@@H](C)O)C(=O)N1CCC[C@H]1C(=O)N[C@@H](CO)C(=O)N[C@@H](CO)C(=O)N[C@H](C(=O)N[C@@H](CC(N)=O)C(=O)N[C@H](C(=O)NCC(=O)N[C@@H](Cc1c[nH]cn1)C(=O)N[C@@H](CC(N)=O)C(=O)N[C@H](C(=O)N[C@@H](Cc1ccc(O)cc1)C(N)=O)[C@@H](C)O)C(C)C)[C@@H](C)O, Analogue of human amylin; disulfide and C-terminal amide as told for h-amylin; also called compound 87)
